Measurements taken from patent US20240424127A1 (BRIGHT PEAK THERAPEUTICS, published 2024).

T1: Recombinant Human IL-7R alpha/CD127 Fc Avi-tag Protein, CF (R&D Systems #AVI10317-050) (human, UniProt P16871 21-239)
T1 construct: Bought construct; It was loaded on streptavidin (SAX/SAX2) biosensors; not shown: Fc and Avi-tag of a bought protein
T1 sequence (looked up): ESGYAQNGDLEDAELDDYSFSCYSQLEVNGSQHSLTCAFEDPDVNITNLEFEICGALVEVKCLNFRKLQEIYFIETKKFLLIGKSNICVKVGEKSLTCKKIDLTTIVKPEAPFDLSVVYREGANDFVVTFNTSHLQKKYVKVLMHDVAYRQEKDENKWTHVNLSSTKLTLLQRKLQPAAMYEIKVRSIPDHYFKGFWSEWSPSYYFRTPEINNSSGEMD

B1: LZM-009 (antibody, V domains shown)
VH: QVQLVQSGAEVKKPGASVKVSCKASGYTFTSYYMYWVRQAPGQGLEWMGGVNPSNGGTNFNEKFKSRVTITADKSTSTAYMELSSLRSEDTAVYYCARRDYRYDMGFDYWGQGTTVTVSS
VL: EIVLTQSPATLSLSPGERATISCRASKGVSTSGYSYLHWYQQKPGQAPRLLIYLASYLESGVPARFSGSGSGTDFTLTISSLEPEDFATYYCQHSRELPLTFGTGTKVEIK
notes: It is a whole antibody with an Fc region (conjugated at K248)
B2: CMP-041, LZM-009 conjugated to synthetic IL-7 (WT) CMP-108, DAR 1, at K248 (other)
VH: B1 VH
VL: B1 VL
chain: DCDIEGKDGKQYESVLXVSIDQLLDSXKEIGSNCLXNEFNFFKRHICDANKEGXFLFRAARKLRQFLKXNSTGDFXLHLLKVSEGTTILLNCTGQVKGRKPAALGEAQPTKSLXENKSLKEQKKLNDLCFLKRLLQEIKTCWNKILXGTKEH
modifications: not fully specified; norleucine (Nle) at 17, 27, 54, 69, 147; homoserine (Hse) at 36, 76, 114; N-terminal glutaryl-PEG9-azide reacted with the DBCO linker on the antibody; K248 (EU numbering) of the Fc region carries the linker to IL-7 (DAR 1)
notes: Immunocytokine (chemical conjugate, not a fusion)

Experiments:
[1] = biological target: T2, Biotinylated Recombinant Human PD-1 (CD279)-Fc Chimera (carrier-free), Biolegend #789406 (human, UniProt Q15116 25-167, biotinylated); test: Direct huPD1 ELISA: antibody coated on the plate, serial dilution of biotinylated human PD-1-Fc (x axis 'Biotin PD1 (nM)'), signal at 450 nm
T2 construct: Bought PD-1-Fc; also called h-PD1 Fc; not shown: Fc part of a bought chimera

[2] = biological target: T2, Biotinylated Recombinant Human PD-1 …; test: ELISA: antibody coated on the plate, serial dilution of biotinylated human PD-1-Fc, streptavidin-HRP, OD 450 nm (x axis printed as 'Molecule (nM)')
Procedure: (§1) Each of these variant conjugates and unmodified antibodies are assayed by ELISA for their ability to bind to human PD-1 according to the following protocol.
(§2) Streptavidin-HRP is Sigma #RABHRP3. TMB solution is 3,3′,5,5′-Tetramethylbenzidine (Sigma T0440). Stop solution is Sigma #CL07STOP solution (0.5M H₂SO₄). Buffers are: Coating buffer is PBS. Wash buffer is PBS-0.02% Tween20. Blocking buffer is PBS-0.02% Tween20 1% BSA. Protein diluent is PBS-0.02% Tween20 0.1% BSA. STOP solution is 0.5M H₂SO₄. Procedure: Immunocytokines and parental antibody are coated overnight at 4° C. The ELISA plates are washed 4 times with 100 μl PBS-0.02% Tween20. and blocked with PBS-1% BSA. A serial dilution of h-PD1 Fc is prepared and plates are incubated for two hours at 37° C., with shaking (600 rpm). ELISA plates are washed and incubated with Streptavidin-HRP 30 min at RT, with shaking (600 rpm). ELISA plates are washed and incubated with ready-to-use TMB solution. Reaction is stopped and plates are read by OD450 on an Enspire plate reader.

[3] = biological target: T2, Biotinylated Recombinant Human PD-1 …; test: Direct huPD1 ELISA: immunocytokine coated on the plate, serial dilution of biotinylated human PD-1-Fc (x axis 'Biotin PD1 (nM)'), signal at 450 nm
Procedure: as §1, §2

[4] = biological target: T2, Biotinylated Recombinant Human PD-1 …; test: ELISA: immunocytokine coated on the plate, serial dilution of biotinylated human PD-1-Fc, streptavidin-HRP, OD 450 nm (x axis printed as 'Molecule (nM)')
Procedure: as §1, §2

[5] = biological target: T1, Recombinant Human IL-7R alpha/CD127 Fc …; test: BLI (Octet R8); CD127-Fc-Avi loaded on SAX2 sensor, immunocytokine as analyte

T2 sequence (Q15116 25-167, change not shown): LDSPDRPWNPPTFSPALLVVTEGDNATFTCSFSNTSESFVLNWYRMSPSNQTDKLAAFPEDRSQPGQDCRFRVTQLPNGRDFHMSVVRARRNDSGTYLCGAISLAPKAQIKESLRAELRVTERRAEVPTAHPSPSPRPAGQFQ

Row | Binder | EC50 [1] [nM] | EC50 [2] [nM] | EC50 [3] [nM] | EC50 [4] [nM] | koff [5] [s⁻¹] | kon [5] [M⁻¹ s⁻¹]
1 | B1 | 0.035 | 0.035 |  |  |  | 
2 | B2 |  |  | 0.0348 | 0.0348 | 0.00979 | 2.95e+06
